The target in test [1] is IL-17 receptor (immobilised receptor of the first BIAcore experiment of Example 8) (UniProt Q96F46). Description: BIAcore SPR; IL-17 (R&D) at 25 ug/mL over immobilised receptor.
Test [2] shares this target. Description: BIAcore SPR; conditioned CHO supernatant over immobilised receptor; IL-20 concentration estimated ~25 ug/mL; pC4 vector control medium ~20 RU.

“And” between values parts separate entries of the source, which are not always exact repeats. Equal values may be shown once.

In test [1], “recombinant human IL-17 (R&D Systems) (from UniProt Q16552 20-155) (ligand)” showed a binding response (RU) of 60 RU.

B1: recombinant human IL-20 expressed in CHO cells (ligand)
chain: RSPKSKRKGQGRPGPLAPGPHQVPLDLVSRMKPYARMEEYERNIEEMVAQLRNSSELAQRKCEVNLQLWMSNKRSLSPWGYSINHDPSRIPVDLPEARCLCLGCVNPFTMQEDRSMVSVPVFSQVPVRRRLCPPPPRTGPCRQRAVMETIAVGCTCIF
Consider B1, for which the binding response (RU) in test [2] was 115 RU and 65 RU.

Source of the values: patent publication US20040096935A1.
